Data from patent US20100325744A1.

Legend:
2F8-HG (human) [1] = assay: self-association; non-covalent nano-electrospray mass spectrometry at 0.01-10 µM
2F8-HG (human) [2] = assay: self-association of HG half-molecules; non-covalent nano-electrospray mass spectrometry

percentage monomeric at low concentrations (2F8-HG (human) [1]): 100% | percentage molecules present as monomers (2F8-HG (human) [2]): 15%
Substance: 2F8-HG (antibody)
